Experimental data reported in paper PMC4980769 (2016).

Legend:
[1] = molecular target: AgrA full length (AgrAFL) (Staphylococcus aureus) (UniProt P0A0I7); test: BLI; AgrAFL (ligand) immobilised on amine reactive 2nd generation (AR2G) tips; AgrC proteins as analytes at different concentrations; 20 mM HEPES pH 7.6, 200 mM KCl, 2% glycerol; AgrC proteins incubated separately with 5 uM DTT and H2O2; Octet Data Analysis Software v 8.0
[2] = molecular target: AgrA full length (AgrAFL) (Staphylococcus aureus) (UniProt P0A0I7); test: BLI; DTT; conditions: domain or fragment
[3] = molecular target: AgrA full length (AgrAFL) (Staphylococcus aureus) (UniProt P0A0I7); test: BLI; H2O2; conditions: domain or fragment
[4] = molecular target: AgrA full length (AgrAFL) (Staphylococcus aureus) (UniProt P0A0I7); test: BLI; conditions: domain or fragment
[5] = molecular target: T1, AgrA full length (AgrAFL) (Staphylococcus aureus, UniProt P0A0I7 1-238); test: BLI; H2O2
T1 chain: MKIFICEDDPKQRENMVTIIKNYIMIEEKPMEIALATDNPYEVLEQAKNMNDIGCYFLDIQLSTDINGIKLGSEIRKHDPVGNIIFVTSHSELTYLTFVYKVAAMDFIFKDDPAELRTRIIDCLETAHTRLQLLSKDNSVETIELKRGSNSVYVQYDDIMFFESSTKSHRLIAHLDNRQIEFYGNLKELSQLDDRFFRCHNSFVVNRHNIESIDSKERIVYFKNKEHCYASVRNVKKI

[6] = molecular target: T1, AgrA full length (AgrAFL); test: BLI; DTT
[7] = molecular target: T1, AgrA full length (AgrAFL); test: BLI

Question: For “recombinant AgrC Y223C protein (domain or fragment)”, which fold reduction in binding affinity against wild-type AgrC [1] is on record?
Answer: The fold reduction in binding affinity against wild-type AgrC was less than 10 fold.

Question: How did the Kd [2] turn out when recombinant AgrC Y223C protein was run?
Answer: Its Kd is 44.9 nM.

Question: And the Kd [3]?
Answer: Its Kd is 31.4 nM.

Question: What about the Kd [4] of the same molecule?
Answer: Its Kd is 105 nM.

B1: recombinant wild-type AgrC (cytosolic domain) (domain or fragment)
chain: KEMKYKRNQEEIETYYEYTLKIEAINNEMRKFRHDYVNILTPLSEYIREDDMPGLRDYFNKNIVPMKDNLQMNAIKLNGIENLKVREIKGLITAKILRAQEMNIPISIEIPDEVSSINLNMIDLSRSIGIILDNAIEASTEIDDPIIRVAFIESENSVTFIVMNKCADDIPRIHELFQESFSTKGEGRGLGLSTLKEIADNADNVLLDTIIENGFFIQKVEIINN
Question: Which results are given for B1?
Answer: Kd [5]: 4.21 nM; Kd [6]: 99.8 nM; Kd [7]: 93.1 nM
